Test results as given in US20210214434A1.

Legend:
[1] = molecular target: Fc receptors on the surface of the effector cells; test: cell-based or functional assay
[2] = molecular target: human CD32aH receptor on transfected HEK cells (HEK-CD32) (human) (UniProt P12318); test: flow cytometry competition on HEK-CD32 cells, displacement of Rituxan-A488 (30 µg/ml)
[3] = molecular target: human CD32aR receptor on transfected HEK cells (HEK-CD32) (human) (UniProt P12318); test: as above
[4] = molecular target: human FcRn receptor expressed by Jurkat cells (Jurkat-FcRn) (human) (UniProt P55899); test: flow cytometry competition on Jurkat-FcRn cells, displacement of Rituxan-A488 (25 µg/ml), pH 6
Chain of human FcRn receptor expressed by Jurkat cells (Jurkat-FcRn) (human) (P55899 24-365, chain 1 of 2): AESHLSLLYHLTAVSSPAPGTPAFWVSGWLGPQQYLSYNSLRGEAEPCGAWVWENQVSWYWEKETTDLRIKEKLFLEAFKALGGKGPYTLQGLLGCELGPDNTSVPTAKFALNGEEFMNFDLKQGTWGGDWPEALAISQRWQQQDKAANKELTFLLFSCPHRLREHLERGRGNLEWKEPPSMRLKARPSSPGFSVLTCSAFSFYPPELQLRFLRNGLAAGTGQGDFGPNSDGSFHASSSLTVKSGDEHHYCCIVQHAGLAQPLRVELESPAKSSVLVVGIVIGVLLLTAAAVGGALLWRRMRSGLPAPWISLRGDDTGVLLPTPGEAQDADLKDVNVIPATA
Chain of human FcRn receptor expressed by Jurkat cells (Jurkat-FcRn) (human) (P61769 21-119, chain 2 of 2, further chain): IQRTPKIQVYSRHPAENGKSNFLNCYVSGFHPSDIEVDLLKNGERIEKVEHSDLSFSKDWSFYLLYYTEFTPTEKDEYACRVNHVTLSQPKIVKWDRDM

[5] = molecular target: HisTag hCD16aV receptor (R&D System) (human) (UniProt P08637); test: BLI (Octet), HisTag hCD16aV on anti-Penta-HIS biosensors, 1/1 model; SD 103.9
Chain of HisTag hCD16aV receptor (R&D System) (human) (P08637 17-208 F176V limits assumed): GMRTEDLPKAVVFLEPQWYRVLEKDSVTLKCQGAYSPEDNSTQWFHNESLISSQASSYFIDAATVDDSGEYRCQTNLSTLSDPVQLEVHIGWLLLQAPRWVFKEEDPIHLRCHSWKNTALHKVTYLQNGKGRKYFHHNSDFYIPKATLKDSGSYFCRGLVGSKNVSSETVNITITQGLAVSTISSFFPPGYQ

[6] = molecular target: human CD64 receptor expressed by Jurkat cells (Jurkat-CD64) (human) (UniProt P12314); test: flow cytometry competition on Jurkat-CD64 cells, displacement of Rituxan-A488 (25 µg/ml)
Chain of human CD64 receptor expressed by Jurkat cells (Jurkat-CD64) (human) (P12314 16-374): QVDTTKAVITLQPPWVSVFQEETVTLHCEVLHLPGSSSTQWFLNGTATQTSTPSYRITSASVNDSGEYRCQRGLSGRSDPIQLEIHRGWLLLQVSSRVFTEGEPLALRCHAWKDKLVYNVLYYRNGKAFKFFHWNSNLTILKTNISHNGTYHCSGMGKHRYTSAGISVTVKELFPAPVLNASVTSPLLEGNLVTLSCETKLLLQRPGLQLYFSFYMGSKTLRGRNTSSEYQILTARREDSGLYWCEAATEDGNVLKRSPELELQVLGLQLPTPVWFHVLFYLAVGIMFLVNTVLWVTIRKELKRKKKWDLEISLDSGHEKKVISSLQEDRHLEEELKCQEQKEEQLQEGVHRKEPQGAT

CD32b = CD32b (UniProt P31994); test: competition assay, protocol and competitor for CD32b not described
Chain of CD32b (P31994 43-310 limits assumed): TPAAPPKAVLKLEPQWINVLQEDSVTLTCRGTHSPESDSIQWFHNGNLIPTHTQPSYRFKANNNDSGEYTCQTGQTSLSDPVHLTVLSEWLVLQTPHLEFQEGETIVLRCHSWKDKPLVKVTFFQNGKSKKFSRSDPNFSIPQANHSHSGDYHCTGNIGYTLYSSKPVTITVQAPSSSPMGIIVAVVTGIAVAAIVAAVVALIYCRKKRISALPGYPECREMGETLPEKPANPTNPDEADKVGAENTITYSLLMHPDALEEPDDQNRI

[7] = molecular target: HisTag hCD32aH receptor (PX therapeutics) (human) (UniProt P12318); test: BLI (Octet), HisTag hCD32aH on anti-Penta-HIS biosensors, 1/1 model; SD 114.3
Chain of HisTag hCD32aH receptor (PX therapeutics) (human) (P12318 34-217 limits assumed): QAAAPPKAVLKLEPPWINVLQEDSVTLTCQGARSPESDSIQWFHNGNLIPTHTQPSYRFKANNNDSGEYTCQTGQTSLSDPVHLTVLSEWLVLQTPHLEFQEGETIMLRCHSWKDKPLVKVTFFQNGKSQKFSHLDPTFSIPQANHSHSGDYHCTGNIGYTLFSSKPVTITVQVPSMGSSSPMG

[8] = molecular target: biotinylated human FcRn receptor (hFcRn), immobilized on Streptavidin Biosensors (human) (UniProt P55899); test: BLI (Octet), biotinylated hFcRn on streptavidin biosensors, pH 6, 1/1 model; SD 1.94
Chain of biotinylated human FcRn receptor (hFcRn), immobilized on Streptavidin Biosensors (human) (P55899 24-297 limits assumed, chain 1 of 2): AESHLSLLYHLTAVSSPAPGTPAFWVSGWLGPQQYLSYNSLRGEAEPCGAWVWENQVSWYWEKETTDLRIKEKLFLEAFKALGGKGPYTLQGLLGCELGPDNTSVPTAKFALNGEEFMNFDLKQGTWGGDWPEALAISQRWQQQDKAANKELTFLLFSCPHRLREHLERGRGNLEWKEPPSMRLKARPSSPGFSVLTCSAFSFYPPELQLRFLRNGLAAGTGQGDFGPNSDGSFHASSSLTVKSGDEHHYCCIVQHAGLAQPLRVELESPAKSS
Chain of biotinylated human FcRn receptor (hFcRn), immobilized on Streptavidin Biosensors (human) (P61769 21-119 limits assumed, chain 2 of 2, further chain): as the sequence (P61769 21-119, chain 2 of 2, further chain) above

[9] = molecular target: human CD64 receptor expressed by Jurkat cells (Jurkat-CD64) (human) (UniProt P12314); test: cell-based or functional assay
[10] = molecular target: HisTag hCD16aV receptor (R&D System) (human) (UniProt P08637); test: BLI (Octet), HisTag hCD16aV on anti-Penta-HIS biosensors, 1/1 model; SD 4.0
[11] = molecular target: human CD16aH receptor on transfected Jurkat cells (Jurkat-CD16aH) (human) (UniProt P08637); test: flow cytometry competition on Jurkat-CD16aH cells, displacement of mAb 3G8-PE (0.5 µg/ml)
Chain of human CD16aH receptor on transfected Jurkat cells (Jurkat-CD16aH) (human) (P08637 17-254): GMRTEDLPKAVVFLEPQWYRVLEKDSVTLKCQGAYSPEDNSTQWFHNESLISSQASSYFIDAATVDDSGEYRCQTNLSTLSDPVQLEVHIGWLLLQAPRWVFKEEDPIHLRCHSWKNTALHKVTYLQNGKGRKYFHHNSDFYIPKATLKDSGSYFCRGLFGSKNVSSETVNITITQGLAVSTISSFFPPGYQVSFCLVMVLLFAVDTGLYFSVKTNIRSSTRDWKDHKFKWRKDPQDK

Chain of human CD32aH receptor on transfected HEK cells (HEK-CD32) (human) (P12318 34-317): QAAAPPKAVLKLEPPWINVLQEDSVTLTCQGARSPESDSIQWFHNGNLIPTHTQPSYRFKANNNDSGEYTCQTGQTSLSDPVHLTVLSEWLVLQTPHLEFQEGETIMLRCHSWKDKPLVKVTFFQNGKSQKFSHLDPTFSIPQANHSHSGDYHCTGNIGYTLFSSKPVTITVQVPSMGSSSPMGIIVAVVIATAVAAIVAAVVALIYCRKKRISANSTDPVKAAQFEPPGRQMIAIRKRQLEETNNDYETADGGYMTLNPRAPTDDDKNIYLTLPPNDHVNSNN
Chain of human CD32aR receptor on transfected HEK cells (HEK-CD32) (human) (P12318 34-317 H167R limits assumed): as the sequence (P12318 34-317) above, with H134R counted along it

| Substance | Inhibition of the lysis of the red blood cells medited by the anti-D AD1 (IC 25%, nM) [1] [nM] | Inhibition of the lysis of the red blood cells medited by the anti-D AD1 (IC 50%, nM) [1] [nM] | IC50 [2] [nM] | IC50 [3] [nM] | IC50 [4] [nM] | Kd [5] [nM] | IC50 [6] [nM] | IC50 (CD32b) [nM] | Kd [7] [nM] | Kd [8] [nM] | Inhibition of the secretion of IL-2 of the Jurkat cells transfected with CD64 (IC 25%, nM) [9] [nM] | Inhibition of the secretion of IL-2 of the Jurkat cells transfected with CD64 (IC 50%, nM) [9] [nM] | Kd [10] [nM] | IC50 [11] [nM] |
| --- | --- | --- | --- | --- | --- | --- | --- | --- | --- | --- | --- | --- | --- | --- |
| A3A-184AY_CHO (K334N/P352S/A378V/V397M/N434Y), Fc variant produced in CHO cells (from UniProt P0DOX5 223-449) | 13.5 | 97 | – | – | – | – | – | – | – | – | – | – | – | – |
| A3A-184EY_CHO (Y296W/K334N/P352S/A378V/V397M/N434Y), Fc variant produced in CHO cells (from UniProt P0DOX5 223-449) | 7.6 | 56 | – | – | – | – | – | – | – | – | – | – | – | – |
| Fc MST-HN fragment containing the mutations M252Y/S254T/T256E/H433K/N434F, produced in HEK-293 cells (from UniProt P01857 104-330) | 190 | 441 | – | – | – | – | – | – | – | – | – | – | – | – |
| IVIg (intravenous immunoglobulin, polyvalent immunoglobulins from pools of human plasma donations) (antibody) | 59.6 | 351 | 671 | 1310 | 1360 | 339 | 880 | 761 | 438 | 34.4 | 1110 | < 1950 | 654 | 1680 |
